These are literature values, as cited in US20030092000.

What is called Kd is a measure of binding affinity in units of concentration.

Common to all, as to settings: method not stated
For data set [1], the system named is FAD 3A (designed three-finger ZFP) (synthetic).
For data set [2], the system named is FAD 3B (designed three-finger ZFP) (synthetic).
The subject of data set [3] is FAD 1A (designed three-finger ZFP) (synthetic).
The test system of data set [4] is FAD 1B (designed three-finger ZFP) (synthetic).
The test system of data set [5] is FAD 5A (designed three-finger ZFP) (synthetic).
Data set [6] has as its system FAD 4B (designed three-finger ZFP) (synthetic).
Data set [7] relates to FAD 4A (designed three-finger ZFP) (synthetic).
The subject of data set [8] is FAD 2A (designed three-finger ZFP) (synthetic).

Consider “GTTGAGGAAG (double strand) [FAD 3 target]”, for which the Kd in data set [1] and in data set [2] was 100 nM in each case.

Consider “GAGGTAGAGG (double strand) [FAD 1 target]”, for which the Kd in data set [3] and in data set [4] was 10 nM in each case.

Consider “TAGGTGGTGA (double strand) [FAD 5 target]”, for which the Kd in data set [5] was 10 nM.

With “GAGGTGGAAG (double strand) [FAD 4 target]”, the Kd is 2 nM in data set [6] and 10 nM in data set [7].

Regarding “GTCGTGTGGA (double strand) [FAD 2 target]”, the Kd in data set [8] is 100 nM.
